Reference: paper PMC9392796, “A mannose-sensing AraC-type transcriptional activator regulates cell–cell aggregation of Vibrio cholerae” (NPJ Biofilms and Microbiomes, 2022)

B1: MB1 WT (dsDNA)
DNA 1: AGACAGAATGATACAATAATCCAGTTTTAACACCAATTC
DNA 2: GAATTGGTGTTAAAACTGGATTATTGTATCATTCTGTCT
B2: MB2 WT (dsDNA)
DNA 1: CAAACCAATAGAGTTACAATCCTCTAGTGAATGTTTTAT
DNA 2: ATAAAACATTCACTAGAGGATTGTAACTCTATTGGTTTG

What was measured:
ManR (VC1825) [1] = target: T1, ManR (VC1825) (Vibrio cholerae, UniProt Q9KR22); details: 50 mM HEPES-NaOH pH 8.0, 500 mM NaCl, 10% glycerol, 1 mM TCEP, 0.5 mg/ml BSA, 0.05% Tween 20, 23 °C; NT-647-labelled protein 2 nM; effector (co-activator)
T1 construct: gene VC_1825

[2] = target: ManR (VC1825), AraC-type transcriptional regulator of Vibrio cholerae (Vibrio cholerae N16961); assay: not stated; Supplementary Fig. 3; method and conditions not shown
ManR (VC1825) [3] = target: ManR (VC1825) (Vibrio cholerae N16961, UniProt Q9KR22 1-279); assay: EMSA; one complex; details: protein: recombinant; chain copies: 2; blunt

Row | Molecule | Kd (ManR (VC1825) [1]) [µM] | binding result (ManR (VC1825) [3]) | also measured
1 | O=P(O)(O)OCC1(O)O[C@H](CO)[C@@H](O)[C@@H]1O (some centres unmarked) [F1P, fructose 1-phosphate] | ~411 |  | 
2 | O=P(O)(O)OC[C@H]1OC(O)[C@@H](O)[C@@H](O)[C@@H]1O (some centres unmarked) [M6P, mannose 6-phosphate] | ~0.152 |  | 
3 | ManR (VC1825), AraC-type transcriptional regulator of Vibrio cholerae (natural protein) |  |  | stoichiometry N [2]: 2
4 | B1 |  | binds | 
5 | B2 |  | binds | 
